Source: US20250179143A1 (CHILDREN S HOSPITAL OF PHILADELPHIA, published 2025)

Assays:
[1] = biological target: HLA-A*02:01/hb2m/KILGFVF(bF)V (human); assay: cell-based or functional assay
[2] = biological target: HLA-A*01:01/hb2m/STAPGJLEY (peptide-loaded) (human); assay: cell-based or functional assay
[3] = biological target: HLA-A*02:06/hb2m/KILGFVF(bF)V (human); assay: cell-based or functional assay
[4] = biological target: HLA-A*02:01/hb2m/KILGFVFJV (peptide-loaded) (human); assay: SPR, peptide-loaded HLA-A*02:01

Binder	k2overall, fold against hTAPBPR [1] [fold]	kapp of fluorescent peptide binding at 5 uM chaperone (FP) [2] [s⁻¹]	k2overall, fold against hTAPBPR [3] [fold]	fold lower KD than hTAPBPR [4] [fold]
hTAPBPR^RQ (K211R, R270Q) (other, domain: luminal domain; As m1) KPHPAEGQWRAVDVVLDCFLAKDGAHRGALASSEDRARASLVLKQVPVLDDGSLEDFTDFQGGTLAQDDPPIIFEASVDLVQIPQAEALLHADCSGKEVTCEISRYFLQMTETTVKTAAWFMANMQVSGGGPSISLVMKTPRVTKNEALWHPTLNLPLSPQGTVRTAVEFQVMTQTQSLSFLLGSSASLDCGFSMAPGLDLISVEWRLQHRGRGQLVYSWTAGQGQAVRKGATLEPAQLGMARDASLTLPGLTIQDEGTYICQITTSLYQAQQIIQLNIQASPKVRLSLANEALLPTLICDIAGYYPLDVVVTWTREELGGSPAQVSGASFSSLRQSVAGTYSISSSLTAEPGSAGATYTCQVTHISLEEPLGASTQVVPPERR	~60	0.00014	~9	~7
hTAPBPR^KRQ (R105K, K211R, R270Q) (other, domain: luminal domain; As m1) KPHPAEGQWRAVDVVLDCFLAKDGAHRGALASSEDRARASLVLKQVPVLDDGSLEDFTDFQGGTLAQDDPPIIFEASVDLVQIPQAEALLHADCSGKEVTCEISKYFLQMTETTVKTAAWFMANMQVSGGGPSISLVMKTPRVTKNEALWHPTLNLPLSPQGTVRTAVEFQVMTQTQSLSFLLGSSASLDCGFSMAPGLDLISVEWRLQHRGRGQLVYSWTAGQGQAVRKGATLEPAQLGMARDASLTLPGLTIQDEGTYICQITTSLYQAQQIIQLNIQASPKVRLSLANEALLPTLICDIAGYYPLDVVVTWTREELGGSPAQVSGASFSSLRQSVAGTYSISSSLTAEPGSAGATYTCQVTHISLEEPLGASTQVVPPERR	~60	0.00013	~9	~7
